In US12365732 (23ANDME, dated 2025):

Key:
[1] = target: T1, recombinant hu-CD96 (M1-M503-polyHis) (human, UniProt P40200 22-519); experiment: ELISA, blocks hu-CD96-his binding to coated CD155-hFc
T1 construct: also called hu-CD96-his
T1 sequence: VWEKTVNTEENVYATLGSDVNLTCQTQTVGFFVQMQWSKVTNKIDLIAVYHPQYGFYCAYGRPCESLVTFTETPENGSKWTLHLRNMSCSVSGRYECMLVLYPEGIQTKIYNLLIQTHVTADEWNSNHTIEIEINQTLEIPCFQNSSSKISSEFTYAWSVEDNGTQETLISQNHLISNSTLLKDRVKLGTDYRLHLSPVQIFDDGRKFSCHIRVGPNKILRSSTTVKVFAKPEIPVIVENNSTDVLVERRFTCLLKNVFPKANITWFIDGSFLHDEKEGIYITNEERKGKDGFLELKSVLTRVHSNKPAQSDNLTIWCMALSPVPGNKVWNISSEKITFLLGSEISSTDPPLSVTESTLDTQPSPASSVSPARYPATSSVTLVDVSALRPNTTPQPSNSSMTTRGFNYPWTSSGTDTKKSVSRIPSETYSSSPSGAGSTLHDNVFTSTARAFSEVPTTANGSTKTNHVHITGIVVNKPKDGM
Protocol: (§1) CD96 binding of purified hybridoma antibodies: The hu-CD96 and cy-CD96 antigen binding ELISA was performed on the purified hybridoma antibodies. Briefly, 96-well MAXISORP® flat bottom plates (Thermo Fisher Scientific, Waltham, MA; Cat #439454) were coated overnight at 4° C. with 0.5 µg/mL of hu-CD96D1 D3-hFc and cynomolgus monkey CD96D1 D3-hFc in PBS. After removing the coating solution, unspecific binding was blocked by PBS containing 1% bovine serum albumin (blocking buffer) and incubation at room temperature for one hour. Plates were then washed three times with PBS and 0.05% TWEEN®-20 (wash buffer). Serial dilution of purified antibodies in PBS containing 0.5% BSA and 0.05% Tween 20 (ELISA buffer) was added to individual wells followed by incubation at room temperature for one hour with agitation. Plates were washed three times with wash buffer, then 100 µL/well of anti-mouse IgG-HRP (Thermo Fisher Scientific, Waltham, MA; Cat #626520) in ELISA buffer was added. […] Enzymatic color development was stopped with 50 µL/well of TMB stop solution (VWR/Avantor, Radnor, PA, USA; Cat #95059-200). Plates were analyzed with a SpectraMax i3X plate reader (Molecular Devices LLC, San Jose, CA, USA) at 450 nm.
CD155 receptor blocking of purified hybridoma antibodies: Human CD155 blocking ELISA was performed on purified hybridoma antibodies following the same protocol as described for CD96 (above), except that serial dilution of purified antibodies 50 µL/well (starting at 1 µM, 1:5 dilution) in assay buffer was added into the reaction.

[2] = target: T2, cynomolgus monkey CD96D1 D3-hFc (cynomolgus monkey); experiment: ELISA, coated CD96D1D3-hFc
T2 construct: also called cy-CD96D1 D3
T2 sequence (chain, as listed by the source limits assumed): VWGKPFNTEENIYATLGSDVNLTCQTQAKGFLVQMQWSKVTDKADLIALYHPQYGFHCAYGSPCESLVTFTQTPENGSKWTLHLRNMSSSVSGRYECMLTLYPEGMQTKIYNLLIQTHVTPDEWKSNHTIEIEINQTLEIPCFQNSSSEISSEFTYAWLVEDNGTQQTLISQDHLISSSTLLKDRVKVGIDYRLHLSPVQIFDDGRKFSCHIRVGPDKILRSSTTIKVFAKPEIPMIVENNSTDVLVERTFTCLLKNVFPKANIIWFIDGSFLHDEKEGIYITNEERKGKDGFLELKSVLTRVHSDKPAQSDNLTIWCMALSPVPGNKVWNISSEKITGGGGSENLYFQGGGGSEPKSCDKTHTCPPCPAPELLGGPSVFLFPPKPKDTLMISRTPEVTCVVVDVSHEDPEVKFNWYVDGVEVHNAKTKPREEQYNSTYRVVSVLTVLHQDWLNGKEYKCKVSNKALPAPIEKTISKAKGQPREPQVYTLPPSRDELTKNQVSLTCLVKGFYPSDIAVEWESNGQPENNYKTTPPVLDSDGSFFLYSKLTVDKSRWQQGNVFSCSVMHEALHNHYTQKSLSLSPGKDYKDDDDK
Protocol: as §1

[3] = target: hu-CD96D1 D3-hFc (human); experiment: ELISA, coated CD96D1D3-hFc
Protocol: as §1

[4] = target: T3, hu-CD96 isoform 2 on CHO cells (human, UniProt P40200 22-585); experiment: FACS, Ab 0.4 nM
T3 construct: also called CHO-CD96 (isoform 2); CD96-CHOs
T3 sequence: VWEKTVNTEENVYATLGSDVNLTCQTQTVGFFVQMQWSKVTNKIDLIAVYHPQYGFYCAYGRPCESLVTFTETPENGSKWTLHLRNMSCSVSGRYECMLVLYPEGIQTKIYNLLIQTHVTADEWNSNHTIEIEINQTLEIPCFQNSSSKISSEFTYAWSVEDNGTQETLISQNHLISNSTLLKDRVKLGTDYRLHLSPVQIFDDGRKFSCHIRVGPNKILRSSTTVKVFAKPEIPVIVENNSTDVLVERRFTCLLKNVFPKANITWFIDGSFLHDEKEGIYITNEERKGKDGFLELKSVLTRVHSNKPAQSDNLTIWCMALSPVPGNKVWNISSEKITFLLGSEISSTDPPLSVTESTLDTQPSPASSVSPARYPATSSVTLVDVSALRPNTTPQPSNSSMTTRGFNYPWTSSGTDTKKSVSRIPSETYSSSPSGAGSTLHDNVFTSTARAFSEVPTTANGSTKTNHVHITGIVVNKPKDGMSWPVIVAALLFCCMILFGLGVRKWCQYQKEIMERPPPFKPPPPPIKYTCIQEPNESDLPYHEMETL
Protocol: (§2) Isoform 1 of hu-CD96 (Origene, catalog #RC213845) was transiently expressed in HEK293T cells following standard lipofectamine or Fugene transfection protocol. […] Cells were washed, and binding was detected by incubation with anti-mouse IgG-FITC (Biolegend, catalog #406001) for 20 minutes at 4° C. Cell binding was analyzed by flow cytometry with a CytoFLEX (Beckman Coulter). Binding curves were calculated as a percentage of cells positive for bound antibody.
(§3) Isoform 2 of hu-CD96 (DNA construct: Origene, catalog #RC221005) was expressed on a single-cell-clone-derived CHO stable cell line. Binding of the anti-CD96 antibodies to the CHO cells were determined as described above with isoform 1 of hu-CD96.

[5] = target: T3, hu-CD96 isoform 2 on CHO cells; experiment: FACS, Ab 0.0032 nM
Protocol: as §2, §3

[6] = target: T3, hu-CD96 isoform 2 on CHO cells; experiment: FACS, % positive curve
Protocol: as §2, §3

[7] = target: T3, hu-CD96 isoform 2 on CHO cells; experiment: FACS, Ab 0.016 nM
Protocol: as §2, §3

[8] = target: T3, hu-CD96 isoform 2 on CHO cells; experiment: FACS, Ab 50 nM
Protocol: as §2, §3

[9] = target: T3, hu-CD96 isoform 2 on CHO cells; experiment: FACS, Ab 10 nM
Protocol: as §2, §3

[10] = target: T3, hu-CD96 isoform 2 on CHO cells; experiment: FACS, Ab 2 nM
Protocol: as §2, §3

[11] = target: T3, hu-CD96 isoform 2 on CHO cells; experiment: FACS, Ab 0.08 nM
Protocol: as §2, §3

[12] = target: T4, hu-CD96 (soluble, isoform 2 extracellular domain) (human, UniProt P40200 22-516, biotinylated in Octet and blocking ELISA); experiment: CD155 blocking ELISA
T4 construct: the assays name only hu-CD96; also called hCD96; biotinylated hu-CD96
T4 sequence: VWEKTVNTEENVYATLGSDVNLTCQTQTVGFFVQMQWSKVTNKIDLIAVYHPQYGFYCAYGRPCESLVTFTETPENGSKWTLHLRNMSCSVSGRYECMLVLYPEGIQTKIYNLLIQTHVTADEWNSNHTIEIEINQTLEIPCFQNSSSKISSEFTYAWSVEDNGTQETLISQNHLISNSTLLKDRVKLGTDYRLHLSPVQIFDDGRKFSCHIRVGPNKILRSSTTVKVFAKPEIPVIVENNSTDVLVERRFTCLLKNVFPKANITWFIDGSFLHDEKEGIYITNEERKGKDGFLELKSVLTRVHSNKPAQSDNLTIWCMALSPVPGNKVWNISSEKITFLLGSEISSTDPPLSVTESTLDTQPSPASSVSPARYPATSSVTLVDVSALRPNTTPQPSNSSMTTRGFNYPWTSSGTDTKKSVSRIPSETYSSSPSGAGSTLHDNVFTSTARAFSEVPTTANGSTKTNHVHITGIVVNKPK

[13] = target: T4, hu-CD96 (soluble, isoform 2 …); experiment: BLI (Octet), biotin-CD96 on SA, Fab analyte
[14] = target: T5, hu-CD96 Fc (human, biotinylated in Table 16); experiment: SPR (Biacore), Fab
T5 construct: also called biotinylated hu-CD96-Fc

B1: 16D9, purified hybridoma antibody (antibody, V domains shown)
VH: QVQLQQSGPELVKPGASVKISCKASGYNFNDYYINWVNQRPGQGLEWIGWIFPGRIITYYNEKFKGKATLTVDTSSNTAYMLLSSLTSEDSAVYFCARGVGEGFDYWGQGTTLTVSS
VL: ENVLTQSPAIMSATLGEKVTMNCRASSNVKYMYWYQQKSGVSPKLWIYYTSNLASGVPTRFSGSGSGTSYSLTISSVEAEDAATYYCQQFTSSPLTFGAGTKLELK
notes: murine hybridoma IgG
In the case of B1, the IC50 [1] is reported as 1.06 nM, the binding result [2] is reported as “no binding” and the EC50 [3] is reported as 0.05 nM.

B2: 1G8, purified hybridoma antibody (antibody, V domains shown)
VH: QVQLQQSGPELLKPGASVKISCKASGYTFTDYYINWVKQRPGQGLEWIGWIFPGTEGIYYNEKFKGKATLTVDKSSTTAYMLLSSLTSEDSAVYFCAREGDYRYYSPLGYWGQGTLVTVSA
VL: DIQMNQSPSSLSASLGDTITITCRVSQDISFWLSWYQQKPGNIPKLLIYKASNLHTGVPPRFSGSGSGTDFTLTISSLQPEDIAAYYCLQSQSYPYTFGGGTKLEIK
notes: murine hybridoma IgG
In the case of B2, the “% positive” value [4] is reported as 7.1%, the “% positive” value [5] is reported as 0.1% and the IC50 [1] is reported as 0.883 nM. The EC50 [6] was 1.04 nM, the “% positive” value [7] was 0% and the “% positive” value [8] was 34.8%. The “% positive” value [9] was 35.3%, the “% positive” value [10] was 26.2% and the binding result [2] was “no binding”. The EC50 [3] was 0.072 nM and the “% positive” value [11] was 0.2%.

B3: 10H5, purified hybridoma antibody (antibody, V domains shown)
VH: QVQLQQSGADLARPGASIKLSCKASGYTFTGYGVTWVKQSTGQGLDWIGEIYPGTVITYYNAKFKGKATLTADKSSSTAYMELRSLTSEDSAVYFCARGLGRAMDYWGQGTSVTVSS
VL: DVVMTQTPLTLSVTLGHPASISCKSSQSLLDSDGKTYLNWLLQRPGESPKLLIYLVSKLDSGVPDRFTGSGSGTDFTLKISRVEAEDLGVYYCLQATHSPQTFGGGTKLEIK
notes: murine hybridoma IgG
Work on B3 yielded an IC50 [1] of 0.958 nM and an EC50 [3] of 0.05 nM.

B4: mAb1.v7.NGS8 Fab (Fab, V domains shown)
VH: EVQLVQSGAEVKKPGASVKVSCKASGFTFTNNFMHWVRQAPGQGLEWIGMIHANSGITNINEKFKNRVTMTTDTSTSTAYMELRSLRSEDTAVYYCRSDGIYEGYFDYWGQGTLVTVSS
VL: DIQLTQSPSSLSASVGDRVTITCKASQNVGTAIVWYQQKPGKAPKVLIYSASTRYTGVPSRFSGSGSGTDFTLTISSLQPEDFATYYCQQYSSSPLTFGQGTKVEIK
notes: Fab with 8xHis tag; also called W33F/P52aA/T97I
B4 was tested, and the IC50 [12] was 0.2 nM, the Kd [13] was 0.1 nM and the Kd [14] was 1.8 nM. The koff [14] was 2.53e-05 s⁻¹ and the kon [14] was 16700 M⁻¹ s⁻¹.

B5: 12F8 (clone 12F8.12B5), purified hybridoma antibody (antibody, V domains shown)
VH: QVQLQQPGAELVTPGASVKLSCKASGFTFTNNWMHWVKQRPGQGLEWIGMIHPNSGITNINEKFKNKATVTVDKSSSTVYIQLSSLTSEDSAVYYCRSDGTYEGYFDYWGQGTPLTVSS
VL: DIVMTQSQKFMSTSVGDRVSVTCKASQNVGTAIVWYQKKPGQSPKTLIYSASTRYTGVPDRFTGSGSGTDFTLTISNVQSEDLAEYFCQQYSSSPLTFGSGTKLEIK
notes: murine hybridoma IgG
With B5 the IC50 [1] was 0.95 nM, the EC50 [2] was ~10 nM and the EC50 [3] was 0.25 nM.
